Measured values taken from patent publication US20240124586A1 (WUXI BIOLOGICS IRELAND, published 2024).
Where two headings read alike, the source gives them in different places. One block for each binder: values may come before it.

Columns and labels:
[1] = biological target: T1, human CD19 on CD19+ B cell lines (Ramos, Raji) (human, UniProt P15391 20-556); experiment: cell-based or functional assay
T1 sequence (looked up): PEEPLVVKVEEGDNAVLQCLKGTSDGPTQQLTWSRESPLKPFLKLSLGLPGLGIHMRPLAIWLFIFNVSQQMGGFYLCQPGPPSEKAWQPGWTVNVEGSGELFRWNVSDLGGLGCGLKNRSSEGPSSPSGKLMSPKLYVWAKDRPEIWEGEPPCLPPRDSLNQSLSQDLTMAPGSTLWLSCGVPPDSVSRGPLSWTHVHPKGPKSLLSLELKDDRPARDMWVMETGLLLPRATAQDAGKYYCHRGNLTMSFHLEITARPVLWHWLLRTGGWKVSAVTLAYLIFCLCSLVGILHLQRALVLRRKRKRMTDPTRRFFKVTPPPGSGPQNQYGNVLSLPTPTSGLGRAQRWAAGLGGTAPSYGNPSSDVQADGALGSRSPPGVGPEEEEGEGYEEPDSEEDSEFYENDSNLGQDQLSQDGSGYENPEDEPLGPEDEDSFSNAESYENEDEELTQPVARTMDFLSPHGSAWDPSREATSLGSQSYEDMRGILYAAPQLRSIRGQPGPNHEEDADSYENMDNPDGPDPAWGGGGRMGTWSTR

[2] = biological target: T2, human CD3 on CD3+ Jurkat cells (human, UniProt P07766 23-207; P09693 23-182; P04234 22-171); experiment: flow cytometry on Jurkat cells
T2 construct: whole, on cells; also called CD3 positive Jurkat cells
T2 sequence (P07766 23-207, chain 1 of 3): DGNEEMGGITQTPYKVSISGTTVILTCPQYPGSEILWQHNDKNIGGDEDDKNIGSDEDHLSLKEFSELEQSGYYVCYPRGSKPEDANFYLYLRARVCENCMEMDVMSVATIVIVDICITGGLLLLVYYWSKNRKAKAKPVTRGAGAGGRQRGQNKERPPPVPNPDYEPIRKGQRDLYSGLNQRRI
T2 sequence (P09693 23-182, chain 2 of 3): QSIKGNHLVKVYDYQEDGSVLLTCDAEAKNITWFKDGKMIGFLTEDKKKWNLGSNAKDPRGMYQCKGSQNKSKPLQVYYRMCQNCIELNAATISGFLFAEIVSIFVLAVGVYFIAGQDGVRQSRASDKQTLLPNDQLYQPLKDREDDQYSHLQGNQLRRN
T2 sequence (P04234 22-171, chain 3 of 3): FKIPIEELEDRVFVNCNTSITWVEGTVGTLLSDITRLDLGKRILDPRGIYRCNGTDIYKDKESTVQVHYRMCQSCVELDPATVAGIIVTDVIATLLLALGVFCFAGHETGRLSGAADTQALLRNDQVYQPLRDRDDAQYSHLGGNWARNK

[3] = biological target: T1, human CD19 on CD19+ B cell lines …; experiment: FACS on CD19+ Ramos cells
[4] = biological target: T1, human CD19 on CD19+ B cell lines …; experiment: flow cytometry on Ramos cells
[5] = biological target: T3, human PD-1 on engineered CHO-S cells (W305-CHO-S.hPro1.C6) (human, UniProt Q15116 25-288); experiment: FACS competition: antibody titrated against human PD-L1 binding to PD-1; falling curve, half-maximal value labelled EC50 on the sheet
T3 construct: whole, on cells; also called human PD-1 engineered cells; PD-1+ cells
T3 sequence (Q15116 25-288, stated change not applied): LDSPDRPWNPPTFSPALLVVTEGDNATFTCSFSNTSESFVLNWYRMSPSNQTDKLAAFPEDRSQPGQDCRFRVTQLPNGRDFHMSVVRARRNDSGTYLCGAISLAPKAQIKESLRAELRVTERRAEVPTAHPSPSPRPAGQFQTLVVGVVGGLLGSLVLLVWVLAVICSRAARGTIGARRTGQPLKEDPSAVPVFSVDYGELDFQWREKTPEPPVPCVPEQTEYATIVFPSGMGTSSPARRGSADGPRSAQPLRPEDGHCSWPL
Description: (§1) In order to test whether the bispecific antibodies could block hPD-L1 binding to hPD-1 protein, a competitive FACS was conducted. […] Plates were incubated at 4° C. for 1 hour. After wash, the binding of W315-hPro1.ECD.mFc to cell expressive human PD-1 was detected by FITC-labeled goat anti-mouse antibody (abcam 98716 1:125). The competition binding of antibodies to the cells was tested by flow cytometry and the mean fluorescence intensity (MFI) was analyzed by FlowJo.

[6] = biological target: T3, human PD-1 on engineered CHO-S cells …; experiment: as above; remark: listed apart in the source
Description: as §1

[7] = biological target: T3, human PD-1 on engineered CHO-S cells …; experiment: FACS on human PD-1 engineered cells
Description: (§2) Engineered human PD-1 expressing cells W305-CHO-S.hPro1.C6 were seeded at 1×10⁵ cells/well in U-bottom 96-well plates (COSTAR 3799). Antibodies with 3.16-fold titration in 1% BSA DPBS from 200 nM to 0.002 nM were added to the cells. The plates were incubated at 4° C. for 1 hour. After wash, […] 1:125 diluted PE-labeled goat anti-human antibody (Jackson 109-115-098) was added to each well and the plates were incubated at 4° C. for 1 hour. The binding of the antibodies onto the cells was tested by flow cytometry and the mean fluorescence intensity (MFI) was analyzed by FlowJo.

[8] = biological target: T4, human PD-1 ECD mouse Fc fusion (W305-hPro1.ECD.mFc) (human, UniProt Q15116 25-170); experiment: dual-binding ELISA: human PD-1 ECD coated, antibody titrated, bound antibody detected with biotinylated human CTLA-4 ECD and streptavidin-HRP
T4 construct: extracellular domain; In-house protein; also called hPD-1-ECD; human PD-1 coated on the plate
T4 sequence (Q15116 25-170): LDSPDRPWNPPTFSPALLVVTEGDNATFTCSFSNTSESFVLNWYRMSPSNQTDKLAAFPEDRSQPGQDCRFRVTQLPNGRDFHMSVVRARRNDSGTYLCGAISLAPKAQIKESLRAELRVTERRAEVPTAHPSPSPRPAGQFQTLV
Description: In order to test whether the bispecific antibodies could bind to both hPD-1 and hCTLA-4, an ELISA assay was developed as below. A 96-well ELISA plate (Nunc MaxiSorp, ThermoFisher) was coated overnight at 4° C. with 0.5 μg/ml antigen-1 (hPD-1-ECD, W305-hPro1.ECD.mFc) in carbonate-bicarbonate buffer. After a 1 hour blocking step with 2% (w/v) bovine serum albumin (Pierce) dissolved in PBS, serial dilutions of the different PD-1×CTLA-4 bispecific antibodies in PBS containing 2% BSA PBS were incubated on the plates for 1 hour at room temperature. Following the incubation, plates were washed three times with 300 μL per well of PBS containing 0.5% (v/v) Tween 20. […] After washing the plates three times, Streptavidin-HRP (Lifetechnologies, #SNN1004) (1:20000 diluted) was added and incubated on the plates for 1 hour at room temperature. After washing six times with […] per well of PBS containing 0.5% (v/v) Tween 20, 100 μL tetramethylbenzidine (TMB) substrate was added for the detection per well. The reaction was stopped after approximately 5 minutes through the addition of […] per well of 2 M HCl. The absorbance of the wells was measured at 450 nm with a multiwall plate reader (SpectraMax® M5e).

[9] = biological target: T3, human PD-1 on engineered CHO-S cells …; experiment: FACS on human PD-1 engineered cells; remark: listed apart in the source
Description: as §2

EC50 of cell lysis, CD8+ T cells and Raji cells, 4 hours [1]: 3.2 nM
EC50 [2]: 19.3 nM
EC50 (read off the curve) [3]: 1 to 2 nM
EC50 [4]: 1.8 nM
B1: W3438-T3U4.F16-1.uIgG4.SP, bispecific trivalent anti-CD3 x CD19 (bispecific antibody)
heavy 1: QVQLVQSGAEVKKPGSSVKVSCKASGFAFTDYYIHWVRQAPGQGLEWMGWISPGNVNTKYNENFKGRVTITADKSTSTAYMELSSLRSEDTAVYYCARDGYSLYYFDYWGQGTLVTVLEDLKNVFPPEVAVFEPSEAEISHTQKATLVCLATGFYPDHVELSWWVNGKEVHSGVCTDPQPLKEQPALQDSRYALSSRLRVSATFWQNPRNHFRCQVQFYGLSENDEWTQDRAKPVTQIVSAEAWGRYGPPCPPCPAPEFLGGPSVFLFPPKPKDTLMISRTPEVTCVVVDVSQEDPEVQFNWYVDGVEVHNAKTKPREEQFNSTYRVVSVLTVLHQDWLNGKEYKCKVSNKGLPSSIEKTISKAKGQPREPQVYTLPPCQEEMTKNQVSLWCLVKGFYPSDIAVEWESNGQPENNYKTTPPVLDSDGSFFLYSRLTVDKSRWQEGNVFSCSVMHEALHNHYTQKSLSLSLGK
light 1: DIVMTQSPDSLAVSLGERATINCKSSQSLLNSRTRKNYLAWYQQKPGQPPKLLIYWASTRQSGVPDRFSGSGSGTDFTLTISSLQAEDVAVYYCTQSHTLRTFGGGTKVEIKPDIQNPDPAVYQLRDSKSSDKSVCLFTDFDSQTQVSQSKDSDVYITDKCVLDMRSMDFKSNSAVAWSQKSDFACANAFQNSIIPEDTFFPSPESS
heavy 2: QMQLVQSGPEVKKPGTSVKVSCKASGYAFTSYNMYWVRQARGQRLEWIGYIDPYNGDTTYNQKFKGRVTITRDMSTSTAYMELSSLRSEDTAVYYCLTTAYAMDYWGQGTLVTVSSASTKGPSVFPLAPCSRSTSESTAALGCLVKDYFPEPVTVSWNSGALTSGVHTFPAVLQSSGLYSLSSVVTVPSSSLGTKTYTCNVDHKPSNTKVDKRVGGGGSGGGGSQMQLVQSGPEVKKPGTSVKVSCKASGYAFTSYNMYWVRQARGQRLEWIGYIDPYNGDTTYNQKFKGRVTITRDMSTSTAYMELSSLRSEDTAVYYCLTTAYAMDYWGQGTLVTVSSASTKGPSVFPLAPCSRSTSESTAALGCLVKDYFPEPVTVSWNSGALTSGVHTFPAVLQSSGLYSLSSVVTVPSSSLGTKTYTCNVDHKPSNTKVDKRVESKYGPPCPPCPAPEFLGGPSVFLFPPKPKDTLMISRTPEVTCVVVDVSQEDPEVQFNWYVDGVEVHNAKTKPREEQFNSTYRVVSVLTVLHQDWLNGKEYKCKVSNKGLPSSIEKTISKAKGQPREPQVCTLPPSQEEMTKNQVSLSCAVKGFYPSDIAVEWESNGQPENNYKTTPPVLDSDGSFFLVSRLTVDKSRWQEGNVFSCSVMHEALHNHYTQKSLSLSLGK
light 2: DIQLTQSPSFLSASVGDRVTITCSASSTVNYMHWYQQKPGKAPKLLIYSTSNLASGVPSRFSGSGSGTEFTLTISSLQPEDFATYYCHQWSSYPYTFGQGTKLEIKRTVAAPSVFIFPPSDEQLKSGTASVVCLLNNFYPREAKVQWKVDNALQSGNSQESVTEQDSKDSTYSLSSTLTLSKADYEKHKVYACEVTHQGLSSPVTKSFNRGEC
notes: also called F16-Design_2-QQQQ (IgG4)
EC50 of T-cell engaged malignant B cell killing [1]: 0.0055 nM

IC50 [5]: 1.67 nM
IC50 [6]: 1.92 nM
EC50 [7]: 1.42 nM
EC50 [8]: 0.107 nM
EC50 [9]: 1.81 nM
B2: U6T1.G25R.IgG4, bispecific anti-PD-1 x CTLA-4 (as listed in Example 15) (bispecific antibody)
heavy: EVQLLESGGGLVQPGGSLRLSCAASGFTFSSHAMSWVRQAPGKGLEWVSTITGGGGSIYYADSVKGRFTISRDNSKNTLYLQMNSLRAEDTAVYYCAKNRAGEGYFDYWGQGTLVTVSSASTKGPSVFPLAPCSRSTSESTAALGCLVKDYFPEPVTVSWNSGALTSGVHTFPAVLQSSGLYSLSSVVTVPSSSLGTKTYTCNVDHKPSNTKVDKRVGGGGSGGGGSQVQLVESGGGVVQPGRSLRLSCAASGFTFSSYTMHWVRQAPGKGLEWVTFISYDGNNKYYADSVKGRFTISRDNSKNTLYLQMNSLRAEDTAIYYCARTGWLGPFDYWGQGTLVTVLEDLKNVFPPEVAVFEPSEAEISHTQKATLVCLATGFYPDHVELSWWVNGKEVHSGVCTDPQPLKEQPALQDSRYALSSRLRVSATFWQNPRNHFRCQVQFYGLSENDEWTQDRAKPVTQIVSAEAWGRYGPPCPPCPAPEFLGGPSVFLFPPKPKDTLMISRTPEVTCVVVDVSQEDPEVQFNWYVDGVEVHNAKTKPREEQFNSTYRVVSVLTVLHQDWLNGKEYKCKVSNKGLPSSIEKTISKAKGQPREPQVYTLPPSQEEMTKNQVSLTCLVKGFYPSDIAVEWESNGQPENNYKTTPPVLDSDGSFFLYSRLTVDKSRWQEGNVFSCSVMHEALHNHYTQKSLSLSLGK
light 1: SYELTQPLSVSVALGQTARITCGGDNIGNKDVHWYQQKPGQAPVLVIYRDSNRPSGIPEGFSGSNSGNTATLTISRAQAGDEADYYCQVWDSIWVFGGGTKLTVLGQPKAAPSVTLFPPSSEELQANKATLVCLISDFYPGAVTVAWKADSSPVKAGVETTTPSKQSNNKYAASSYLSLTPEQWKSHKSYSCQVTHEGSTVEKTVAPTECS
light 2: not shown
notes: kept apart; also called U6T1 in G25R format

IC50 [6]: 1.87 nM
EC50 [9]: 1.74 nM
B3: U6T1.G19R.IgG4, bispecific anti-PD-1 x CTLA-4 (bispecific antibody)
heavy: EVQLLESGGGLVQPGGSLRLSCAASGFTFSSHAMSWVRQAPGKGLEWVSTITGGGGSIYYADSVKGRFTISRDNSKNTLYLQMNSLRAEDTAVYYCAKNRAGEGYFDYWGQGTLVTVLEDLKNVFPPEVAVFEPSEAEISHTQKATLVCLATGFYPDHVELSWWVNGKEVHSGVCTDPQPLKEQPALQDSRYALSSRLRVSATFWQNPRNHFRCQVQFYGLSENDEWTQDRAKPVTQIVSAEAWGRYGPPCPPCPAPEFLGGPSVFLFPPKPKDTLMISRTPEVTCVVVDVSQEDPEVQFNWYVDGVEVHNAKTKPREEQFNSTYRVVSVLTVLHQDWLNGKEYKCKVSNKGLPSSIEKTISKAKGQPREPQVYTLPPSQEEMTKNQVSLTCLVKGFYPSDIAVEWESNGQPENNYKTTPPVLDSDGSFFLYSRLTVDKSRWQEGNVFSCSVMHEALHNHYTQKSLSLSLGGGGGSGGGGSGGGGSGGGGSQVQLVESGGGVVQPGRSLRLSCAASGFTFSSYTMHWVRQAPGKGLEWVTFISYDGNNKYYADSVKGRFTISRDNSKNTLYLQMNSLRAEDTAIYYCARTGWLGPFDYWGQGTLVTVSSASTKGPSVFPLAPCSRSTSESTAALGCLVKDYFPEPVTVSWNSGALTSGVHTFPAVLQSSGLYSLSSVVTVPSSSLGTKTYTCNVDHKPSNTKVDKRV
light 1: SYELTQPLSVSVALGQTARITCGGDNIGNKDVHWYQQKPGQAPVLVIYRDSNRPSGIPEGFSGSNSGNTATLTISRAQAGDEADYYCQVWDSIWVFGGGTKLTVLPDIQNPDPAVYQLRDSKSSDKSVCLFTDFDSQTQVSQSKDSDVYITDKCVLDMRSMDFKSNSAVAWSQKSDFACANAFQNSIIPEDTFFPSPESS
light 2: not shown
notes: Symmetric tetravalent format G19R; also called U6T1 in G19R format

IC50 [6]: 1.96 nM
EC50 [9]: 1.65 nM
B4: U6T1.G25.IgG4, bispecific anti-PD-1 x CTLA-4 (bispecific antibody)
heavy: not shown
light 1: B3 light 1
light 2: not shown
notes: Symmetric tetravalent format G25; also called U6T1 in G25 format
